Measurements reported in the DeepSol protein solubility set.

experiment: soluble on expression in E. coli; label from the status in PepcDB or PDB records

Soluble on expression in E. coli, soluble:
MGHDIDQVAPLLREPANFQLRTNCDPHEDNFGLRAHGPLVRIVGESSTQLGRDFVWQAHGYEVVRRILGDHEHFTTRPQFTQSKSGAHVEAQFVGQISTYDPPEHTRLRKMLTPEFTVRRIRRMEPAIQSLIDDRLDLLEAEGPSADLQGLFADPVGAHALCELLGIPRDDQREFVRRIRRNADLSRGLKARAADSAAFNRYLDNLLARQRADPDDGLLGMIVRDHGDNVTDEELKGLCTALILGGVETVAGMIGFGVLALLDNPGQIELLFESPEKAERVVNELVRYLSPVQAPNPRLAIKDVVIDGQLIKAGDYVLCSILMANRDEALTPDPDVLDANRAAVSDVGFGHGIHYCVGAALARSMLRMAYQTLWRRFPGLRLAVPIEEVKYRSAFVDCPDQVPVTW, MGHHHHHHAIAENLYFQSKLVEKTTTTEQDNGEDFCRTIIEVSEVNRNVFQAPGGEADPFRVVSGEELHLIPPLNFSMVDNGIFRSGFPDSANFSFLQTLGLRSIIYLCPEPYPESNLQFLKSNGIRLFQFGIEGNKEPFVNIPDHKIRMALKVLLDEKNHPVLIHCKRGKHRTGCLVGCLRKLQKWCLTSIFDEYQRFAAAKARVSDQRFMEIFDVSSFSHIPMSFSCSIR, MGHHHHHHSHALPAGEWGTVQLRGSWRVGQTAGGSRNFASYPTNPCFPFSVPEGPGPRCVRITLHQHCRPSDTEFHPIGFHIFQVPEGGRSQDAPPLLLQEPLLSCVPHRYAQEVSRLCLLPAGTYKVVPSTYLPDTEGAFTVTIATRIDRPSIHSQEMLGQFLQEVSVMAVMKT, MGHHHHHHSHKELQRRRRSLALPGLQGCAELRQKLSLNFHSLCEQQPIGRRLFRDFLATVPTFRKAATFLEDVQNWELAEEGPTKDSALQGLVATCASAPAPGNPQPFLSQAVATKCQAATTEEERVAAVTLAKAEAMAFLQEQPFKDFVTSAFYDKFLQWKLFEMQPVSDKYFTEFRVLGKGGFGEVCAVQVKNTGKMYACKKLDK, MGHHHHHHSHMAEAKPDVWKSYNVGTVLFEDKASETKGSDIYHRIIPDAESYIKEQARTVLATLYNSPEDSITPVNKIHYTLEDIEGISAKGGGNGDVTIFYSTRHIEKSFAENDTAKLFFETRGVLLHELTHAYQLEPQGIGSYGTNRVFWAFIEGMADAVRVANGGFDGPNARPKGGNYMDGYRTAGYFFVWLRDNKDPEFLRKFNRSTLEVIPWSFDGAIKHILGTEYSIDELWHEYQVAVGDIQV, MGHHHHHHSHMAFFRRSLMTENAVLQLRAERIARATRPFLARGNRVRRCQRCLLPEKLCLCSTITPAQAKSRFCLLMFDTEPMKPSNTGRLIADILPDTVAFQWSRTEPSQDLLELVQNPDYQPMVVFPASYADEQREVIFTPPAGKPPLFIMLDGTWPEARKMFRKSPYLDNLPVISVDLSRLSAYRLREAQAEGQYCTAEVAIALLDMAGDTGAAAGLGEHFTRFKTRYLAGKTQHLGSITAEQLESV, MGHHHHHHSHMDWNKTYAAIYRARKDYLKPIFEIDPIALKDLVGMESQKKALYENTLNFIQDKGANHALLWGSKGTGKSSLIKAIFNEFKEQGLRLVELNKEDLFALADIIDEIRLENFKFILFCDDFSFEKGDDSYKFLKPLLEGSIEKAPNNVIIYASSNRRHLLSESITDNLDTQITHTELHLSDAAEERLSLSDRFG, MGHHHHHHSHMGNCCWTQCFGLLRKEAGRLQRVGGGGGSKYFRTCSRGEHLTIEFENLVESDEGESPGSSHRPLTEEEIVDLRERHYDSIAEKQKDLDKKIQKEQERQRIVQQYHPSNNGEYQSSGPEDDFESCLRNMKSQYEVFRSSRLSSDATVLTPNTESSCDLMTKTKSTSGNDDSTSLDLEWEDEEGMNRMLPMRERSKTEEDILRAALKYSNKETGSNPTSASDDSNGLEWENDFVSAEMDDNGNSEYSGFVNPVLELSDSGIRHSDTDQQTR, MGHHHHHHSHMGNCQAVNAAVLVLQHPGGIIDRYYSSVSVTEVMAMYPGHYVSLIIPLSEEEEKNIPATEKGDDKKQRKAVRFTRVQLLRPTENLVLGHAYRLITSQEVMKVLREKKSAKTKKHQIEKTTTAKKFSDKKVPEKKQGKQFRVIRNSTSLLKSKTWRPSLQSISEATS, MGHHHHHHSHMGNDKRSQIFTLSRYAGILRRCLKENAMSAQKPGLHPRNRHHSRYDLATLCQVNPELRQFLTLTPAGEQSVDFANPLAVKALNKALLAHFYAVANWDIPDGFLCPPVPGRADYIHHLADLLAEASGTIPANASILDIGVGANCIYPLIGVHEYGWRFTGSETSSQALSSAQAIISSNPGLNRAIRLRRQKESGAIFNGIIHKNEQYDATLCNPPFHDSAAAARAGSERKRRNLGLNKDDALNFGGQQQELWCEGGEVTFIKKMIEESKGFAKQVMWFTSLVSRGENLPPLYRALTDVGAVKVVKKEMAQGQKQSRFIAWTFMNDEQRRRFVNRQR, MGHHHHHHSHMIALKMFYTEETYEQFFDYGLDYVIDASDTICYKIHLMKECLKRDIPLISSMGAANKTDPTRFQIADISKTHTDPIAKVVRTKLRKEGIKKGVQVIFSDESPIVIREDVRKEVGNDEAKIRKAKMPPSSNAFVPSVAGLIMGGHVVMDLLKDIEIKRVKDK

Soluble on expression in E. coli, not soluble:
MGHHHHHHSHCDSDCLWVGLAGPQILPPCRSIVRTLHQHKLGRASWPSVQQGLQQSFLHTLDSYRILQKAAPFDRRATSLAWHPTHPSTVAVGSKGGDIMLWNFGIKDKPTFIKGIGAGGSITGLKFNPLNTNQFYASSMEGTTRLQDFKGNILRVFASSDTINIWFCSLDVSASSRMVVTGDNVGNVILLNMDGKELWNLRMHKKKVTHVALNPCCDWFLATASVDQTVKIWDLRQVRGKASFLYSLPHRHPVNAACFSPDGARLLTTDQKSEIRVYSASQWDCPLGLIPHPHRHFQHLTPIKAAWHPRYNLIVVGRYPDPNFKSCTPYELRTIDVFDGNSGKMMCQLYDPESSGISSLNEFNPMGDTLASAMGYHILIWSQEEARTRK, MGHHHHHHSHGSHVKVKSFEKERQTEKRVLETELVDHVLQKLRTKVTDERNGREASDNLAVQNLKGSFSNASGLFEIHGATVVPIVSVLAPEKLSASTRRRYETQVQTRLQTSLANLHQKSSEIEILAVDLPKETILQFLSLEWDADEQAFNTTVKQLLSRLPKQRYLKLVCDEIYNIKVEKKVSVLFLYSYRDDYYRILF, MGHHHHHHSHGSSAEIAATLGLPVVLVVDVRGMSQSVGAVVRGFATADPHVRIAGVILNKVGTDRHAEVCREAVEAVGVRVLGAIP, MGHHHHHHSHKLEEAYEPNQVAISLIGEPTLYPMLPELIEEYKKRGFTTFLVTNGTNPDMLEKVKPTQLYLSLTAFDEDSHLVLNRPGKSNWERVLRSLEVMRDSGSRTVIRLTLIRGYNMDEEAIRKYSELIEMAEPDFIEAKAYMYLGYSRLRLRWGNMPEHADIVEFSRKLADSTGYEVKRESEPSRVVL, MGHHHHHHSHLSFHFPPRVTGHPWSLVFCTSRDGFSLQSLYRRMEGCSGPVLLVLRDQDGQIFGAFSSSAIRLSKGFYGTGETFLFSFSPQLKVFKWTGSNSFFVKGDLDSLMMGSGSGRFGLWLDGDLFRGGSSPCPTFNNEVLARQEQFCIQELEAWLLS, MGHHHHHHSHMAAPPQLRALLVVVNALLRKRRYHAALAVLKGFRNGAVYGAKIRAPHALVMTFLFRNGSLQEKLWAILQATYIHSWNLARFVFTYKGLRALQSYIQGKTYPAHAFLAAFLGGILVFGENNNINSQINMYLLSRVLFALSRLAVEKGYIPEPRWDPFPLLTAVVWGLVLWLFEYHRSTLQPSLQSSMTYLYEDSNVWHDISDFLIYNKSRPSN, MGHHHHHHSHMARLILERFLQEHEETPPSKSIINSMLRDPSQIPDGVLANQVYQCIVNDCCYGPLVDCIKHAIGHEHEVLLRDLLLEKNLSFLDEDQLRAKGYDKTPDFILQVPVAVEGHIIHWIESKASFGDECSHHAYLHDQFWSYWNRFGPGLVIYWYGFIQELDCNRERGILLKACFPTNIVTLCHSIA, MGHHHHHHSHMDDKKKKRSPKPCLAQPAQAPGTLRRVPVPTSHSGSLALGLPHLPSPKQRAKFKRVGKEKCRPVLAGGGSGSAGTPLQHSFLTEVTDVYEMEGGLLNLLNDFHSGRLQAFGKECSFEQLEHVREMQEKLARLHFSLDVCGEEEDDEEEEDGVTEGLPEEQKKTMADRNLDQLLSNLEDLSNSMYPFQGTRLCVCVPERSVSSSPALQEYSHTTNFPTSCSPVRFSHRLPKPRYRNLEFPQN, MGHHHHHHSHMDIQKSENEDDSEWEDVDDEKGDSNDDYDSAGLLSDEDCMSVPGKTHRAIADHLFWSEETKSRFTEYSMTSSVMRRNEQLTLHDERFEKFYEQYDDDEIGALDNAELEGSIQVDSNRLQEVLNDYYKEKAENCVKLNTLEPLEDQDLPMNELDESEEEEMITVVLEEAKEKWDCESICSTYSNLYNHPQLIKYQPKPKQIRISSKTGIPLNVLPKKGLTAKQTERIQMINGSDLPKVSTQPRSKNESKEDKRARKQAIKEERKERRVEKKANKLAFKLEKRRQEKELLNLKKNVEGLKL, MGHHHHHHSHMEEAGSVALEELVEKEKDRFFSGVDYIVISDNLWISQRKPAITYGTRGNSYFMVEVKCRDQDFHSGTFGGILHEPMADLVALLGSLVDSSGHILVPGIYDEVVPLTEEEINTYKAIHLDLEEYRNSSRVEKFLFDTKEEILMHLWRYPSLSIHGIEGAFDEPGTKTVIPGRVIGKFSIRLVPHMNVSAVEKQVTRHLEDVFSKRNSSNKMVVSMTLGLHPWIANIDDTQYLAAKRAIRTVFGTEPDMIRDGSTIPIAKMFQEIVHKSVVLIPLGAVDDGEHSQNEKINRWNYIEGTKLFAAFFLEMAQLH, MGHHHHHHSHMEELLPDGQIWANMDPEERMLAAATAFTHICAGQGEGDVRREAQSIQYDPYSKASVAPGKRPALPVQLQYPHVESNVPSETVSEASQRLRKPVMKRKVLRRKPDGEVLVTDESIISESESGTENDQDLWDLRQRLMNVQFQEDKESSFDVSQKFNLPHEYQGISQDQLICSLQREGMGSPAYEQDLIVASRPKSFILPKLDQLSRNRGKTDRVARYFEYKRDWDSIRLPGEDHRKELRWGVREQMLCRAEPQSKPQHIYVPNNYLVPTEKKRSALRWGVRCDLANGVIPRKLPFPLSPS, MGHHHHHHSHMEEMKKTAIRLPKGKQKPIKTEWNSRCVLFTYFQGDISSVVDEHFSRALSNIKSPQELTPSSQSEGVMLKNDDSMSPNQWRYSSPWTKPQPEVPVTNRAANCNLHVPGPMAVNQFSPSLARRASVRPGELWHFSSLAGTSSLEPGYSHPFPARHLVPEPQPDGKREPLLSLLQQDRCLARPQESAARENGNPGQIAGSTGLLFNLPPGSVHYKKLYVSRGSASTSLPNETLSELETPGKYSLTPPNHWGHPHRYLQHL, MGHHHHHHSHMFGYVVVNEQNSIVFLDGNEEFKTIFQSLIQSEITSRKSDLDSASSGVGSSTCTEEQESSLDHFKKPNVVFNSSEISHILLPLILLYRSTSEKTKDPITEMSSQFGTISISKFYHNYLVLVFANDDRKRIEVSQTIEHTIATLFGPLIAFCHTDLTTVKKPKEHLACALTRKLSYSPKC, MGHHHHHHSHMGYIYIVSFGDVEDRLLLADASNVKEIFDLEVRVSTVKADIEEAYNPQRNQYHAGTILSYLSRVVYPDMVRLVALVSFDLYEEGLNFVFGEAQYGGKYAVVSTYRLYHPDERVFFERVFKETNHELGHTFGLKHCPDPYCVMSFSNSIDEVDRKSRDFCPNCRRKLDYVLSYYR, MGHHHHHHSHMHTPEVASPSPGDRCREKSSPRPQTRFPSWHRVGDGWRVSIGTARSGCCQVGPCQGSSPLSTLCLAVPAPRYSNMACTQQSGGTTMVTADAPRLCLVNVAEQNGRLDPEEGPLSWHLSLAT
